Assay [1] deals with R17^GAG2 (333KGRRK337 to 333DGEED337) (rodent herpesvirus Peru (RHVP)). In words: SPR. (Surface plasmon resonance follows binding to a sensor surface in real time, without labels.)
The target in assay [2] is R17 266NAGAQ270 mutant (rodent herpesvirus Peru (RHVP)). Kind of assay: SPR.

Some results are limits rather than exact numbers.

The molecule “murine CCL2^K47N (from UniProt P10148 24-148) (ligand)” registered a t1/2 in assay [1] of 5.5 s. Molecule “murine CCL2^L46R (from UniProt P10148 24-148) (ligand)” came in with a fold longer half life than wild type CCL2 in assay [1] of 2 fold. The molecule “murine CCL2^L46RK47N (from UniProt P10148 24-148) (ligand)” returned a t1/2 in assay [1] of more than 900 s.

B1: murine CCL3 (ligand)
chain: APYGADTPTACCFSYSRKIPRQFIVDYFETSSLCSQPGVIFLTKRNRQICADSKETWVQEYITDLELNA
Take B1: in assay [2], the fold faster kinetic off-rate than with wild type R17 was more than 100 fold and the t1/2 is 11 s.

Source of the values: article PMC7039123.
